{
  "source": "paper PMC7305465",
  "about": "“A Cardiac Troponin T Biosensor Based on Aptamer Self-assembling on Gold”",
  "biological_target": "cardiac troponin T (TnT) (human, UniProt P45379 2-298)",
  "test": "electrochemical aptasensor (DPV, ferro/ferricyanide); 0.05-5 ng/mL TnT; LOD 0.01 ng/mL; aptamer on gold; TnT binding at 37 C, ~30 min, working pH 7.4; aptamer immobilized from 10 mM phosphate, 5 mM NaCl, 2 mM KCl, 1 mM MgCl2, pH 7.4; DPV in 20 mM Tris-HCl, 0.5 M KCl, 0.5 M ferro/ferricyanide",
  "conditions": "protein: commercial",
  "data": [
    {"binder": "CGTGCAGTACGCCAACCTTTCTCATGCGCTGCCCCTCTTA (structured_DNA, 5'-SH-(CH2)6 thiol)", "note": "[TnT aptamer]", "values": [
      {"measurement": "binding result", "result": "binds"}
    ]}
  ]
}
